± gives the standard deviation of the averaged measurements.
System: Saccharomyces cerevisiae
Assay: protein stability index of tFT-peptide fusion (C-terminal peptide) (PSI (0-1 scale)); higher = more stable (slower turnover)
Conditions: temperature: 30 C
Experimental: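 MPS profiling in S. cerevisiae of the yeast C-terminome library: the last 12 aa of each annotated ORF are fused to the C-terminus of a sfGFP-mCherry timer, after a GGGS linker. Cells are FACS-sorted into 8 mCherry/sfGFP bins and deep-sequenced. PSI runs from 0 (unstable) to 1 (stable); wild type and das1Δ backgrounds, two technical replicates each.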

[1] = genetic background: das1 deletion

| Sequence | protein stability index [1] | protein stability index (genetic background: wild type) |
| --- | --- | --- |
| QKYLEELQKKKF [YET2 C-terminal 12 aa] | 0.712 ± 0.023 | 0.7424 ± 0.0019 |
| QLIDIAKKMGIL [BIR1 C-terminal 12 aa] | 0.678 ± 0.051 | 0.276 ± 0.0083 |
| QLQMILFGKKFK [PET9 C-terminal 12 aa] | 0.711 ± 0.016 | 0.701 ± 0.021 |
| QNDRRSVLKKYI [YER010C C-terminal 12 aa] | 0.69 ± 0.025 | 0.666 ± 0.021 |
| QNQDEPITENFE [TUB2 C-terminal 12 aa] | 0.718 ± 0.016 | 0.718 ± 0.025 |
| QPKIEINVDQYD [SPC1 C-terminal 12 aa] | 0.691 ± 0.047 | 0.6919 ± 0.0036 |
| QQPNQNQNQNSK [FIP1 C-terminal 12 aa] | 0.738 ± 0.049 | 0.676 ± 0.019 |
| QQSPHPVVDNDK [KIP2 C-terminal 12 aa] | 0.6922 ± 0.0065 | 0.682 ± 0.035 |
| QRIHQTLEVPNL [FAR1 C-terminal 12 aa] | 0.708 ± 0.01 | 0.692 ± 0.06 |
| QRTVKQEGNKGG [GZF3 C-terminal 12 aa] | 0.712 ± 0.021 | 0.69986 ± 0.00047 |
| QSILACCQESNK [LCB1 C-terminal 12 aa] | 0.702 ± 0.0093 | 0.645 ± 0.0071 |
| QSPLMDMLAPQL [TOM6 C-terminal 12 aa] | 0.706 ± 0.015 | 0.7117 ± 0.00029 |
| QSQYPDVGIPAI [YAR023C C-terminal 12 aa] | 0.7082 ± 0.0034 | 0.669 ± 0.011 |
| QSSHFGQVDEII [DUR3 C-terminal 12 aa] | 0.684 ± 0.046 | 0.726 ± 0.04 |
| QSTAVFFTNKTD [YER076W-A C-terminal 12 aa] | 0.707 ± 0.018 | 0.684 ± 0.046 |
| QTDGMGLVSWWE [RPC25 C-terminal 12 aa] | 0.751 ± 0.011 | 0.749 ± 0.041 |
| QTILFAAFLPPA [GPI18 C-terminal 12 aa] | 0.696 ± 0.025 | 0.682 ± 0.008 |

| Sequence | protein stability index [1] | protein stability index (genetic background: wild type) |
| --- | --- | --- |
| QTTFLATAIVLC [YOR331C C-terminal 12 aa] | 0.441 ± 0.018 | 0.4167 ± 0.0014 |
| QTTRMLNDLIVS [MGA2 C-terminal 12 aa] | 0.664 ± 0.01 | 0.667 ± 0.017 |
| QVHPSRQELSFT [DON1 C-terminal 12 aa] | 0.7176 ± 0.0016 | 0.701 ± 0.069 |
| QVTWHKHSPRIQ [YKL202W C-terminal 12 aa] | 0.713 ± 0.024 | 0.7036 ± 0.0056 |
| RCSETKQQVMNS [BTT1 C-terminal 12 aa] | 0.669 ± 0.033 | 0.691 ± 0.0026 |
| REGVVPPVGITN [EGO4 C-terminal 12 aa] | 0.706 ± 0.031 | 0.66 ± 0.024 |
| RELREHTKLLHS [YIL082W-A C-terminal 12 aa] | 0.6879 ± 0.0029 | 0.597 ± 0.021 |
| REVDDRFKVIYV [VPS35 C-terminal 12 aa] | 0.692 ± 0.018 | 0.695 ± 0.029 |
| RFAKGGKFVEVD [ATP18 C-terminal 12 aa] | 0.6904 ± 0.001 | 0.6675 ± 0.0047 |
| RFYFLSIFKYII [YBR191W-A C-terminal 12 aa] | 0.633 ± 0.023 | 0.331 ± 0.02 |
| RGRIAAQKRISA [RPL17B C-terminal 12 aa] | 0.681 ± 0.014 | 0.663 ± 0.016 |
| RHAASLLGMSTK [VPS17 C-terminal 12 aa] | 0.714 ± 0.0089 | 0.762 ± 0.03 |
| RHCARVKRSSRL [LYS1 C-terminal 12 aa] | 0.778 ± 0.024 | 0.823 ± 0.046 |
| RKEVIDALVSLS [AIM46 C-terminal 12 aa] | 0.7011 ± 0.0026 | 0.6881 ± 0.0046 |
| RKFFSMRSLNSR [CHL1 C-terminal 12 aa] | 0.696 ± 0.014 | 0.6589 ± 0.0015 |
| RKLFLVVKDNIL [JIP3 C-terminal 12 aa] | 0.695 ± 0.016 | 0.734 ± 0.015 |
| RKNNKKSISYYG [YOR203W C-terminal 12 aa] | 0.706 ± 0.011 | 0.731 ± 0.0063 |

Source: the supplement of paper PMC10724198
